B1: TPP-957; PD138G7(G109D)-6GS-172E1-13-6GS-HSA2-His (bispecific antibody)
chain: EVQLVESGGGVVRPGGSLRLSCAASGFTFDDYAMSWVRQAPGKGLEWVSGITWNGGSTGYADSVKDRFTISRDNAKNSLYLQMNSLRAEDTALYYCVRDKYSYAWSYDDFDIWGQGTMVTVSSGGGGSGGGGSGGGGSGGGGSGGGGSGGGGSEVQLVESGGGVVQPGGSLRLSCAASGFTFSNYGMHWVRQAPGKGLEWVAVISNDGNTKTYADSVKGRFTISRDNSKNTLYLQMNSLRAEDTAVYYCAQDETTTVTASYYFDYWGQGTLVTVSSGGGGSGGGGSGGGGSGGGGSGGGGSGGGGSEVQLVESGGGLVKPGGSLRLSCAASGFTFSNYNMNWVRQAPGKGLEWVSSISSAGTHIYYADSVKGRFTISRDNAKNSLYLQMNSLRAEDTAVYYCARDPHSTGWYKDFDYWGQGTLVTVSSAAAHHHHHH
B2: TPP-958: PD138G7(G109D)-6GS-172E1-13-6GS-HSA3-His (bispecific antibody)
chain: EVQLVESGGGVVRPGGSLRLSCAASGFTFDDYAMSWVRQAPGKGLEWVSGITWNGGSTGYADSVKDRFTISRDNAKNSLYLQMNSLRAEDTALYYCVRDKYSYAWSYDDFDIWGQGTMVTVSSGGGGSGGGGSGGGGSGGGGSGGGGSGGGGSEVQLVESGGGVVQPGGSLRLSCAASGFTFSNYGMHWVRQAPGKGLEWVAVISNDGNTKTYADSVKGRFTISRDNSKNTLYLQMNSLRAEDTAVYYCAQDETTTVTASYYFDYWGQGTLVTVSSGGGGSGGGGSGGGGSGGGGSGGGGSGGGGSEVQLLESGGGLVKPGGSLRLSCAASGFTVSSYTMNWVRQAPGKGLEWVSSISSSGRYIYYADSVKGRFTISRDNAKNSLYLQMNSLRAEDTAVYYCARDPRMVGNPHEFDIWGQGTMVTVSSAAAHHHHHH
B3: TPP-971: PDA2-6GS-HSA2-6GS-172E1-13-His (bispecific antibody)
chain: EVQLVESGGGVVRPGGSLRLSCAASGFTFDDYAMSWVRQAPGKGLEWVSGITWNAGSTGYADSVKGRFTISRDNAKNSLYLQMNSLRAEDTALYYCVRDKYSYAWSYDDFDIWGQGTMVTVSSGGGGSGGGGSGGGGSGGGGSGGGGSGGGGSEVQLVESGGGLVKPGGSLRLSCAASGFTFSNYNMNWVRQAPGKGLEWVSSISSAGTHIYYADSVKGRFTISRDNAKNSLYLQMNSLRAEDTAVYYCARDPHSTGWYKDFDYWGQGTLVTVSSGGGGSGGGGSGGGGSGGGGSGGGGSGGGGSEVQLVESGGGVVQPGGSLRLSCAASGFTFSNYGMHWVRQAPGKGLEWVAVISNDGNTKTYADSVKGRFTISRDNSKNTLYLQMNSLRAEDTAVYYCAQDETTTVTASYYFDYWGQGTLVTVSSAAAHHHHHH
B4: TPP-975: CD137D-6GS-PDA2-6GS-HSA2-His (bispecific antibody)
chain: EVQLVESGGGVVQPGGSLRLSCAASGFTFSNYGMHWVRQAPGKGLEWVAVISNDGNTKTYADSVKGRFTISRDNSKNTLYLQMNSLRAEDTAVYYCAQDETTTVTASYYFDYWGQGTLVTVSSGGGGSGGGGSGGGGSGGGGSGGGGSGGGGSEVQLVESGGGVVRPGGSLRLSCAASGFTFDDYAMSWVRQAPGKGLEWVSGITWNAGSTGYADSVKGRFTISRDNAKNSLYLQMNSLRAEDTALYYCVRDKYSYAWSYDDFDIWGQGTMVTVSSGGGGSGGGGSGGGGSGGGGSGGGGSGGGGSEVQLVESGGGLVKPGGSLRLSCAASGFTFSNYNMNWVRQAPGKGLEWVSSISSAGTHIYYADSVKGRFTISRDNAKNSLYLQMNSLRAEDTAVYYCARDPHSTGWYKDFDYWGQGTLVTVSSAAAHHHHHH
B5: TPP-982: CD137A-6GS-HSA2-6GS-PDA-His (bispecific antibody)
chain: EVQLVESGGGLVQPGGSLRLSCAASGFTLSNYWMNWVRQAPGKGLEWVANINQDGSERYYVDSVKGRFTISRDNAKNSLYLQMNSLRAEDTAVYYCARGGEGYGVDHYGLDVSGQGTTVTVSSGGGGSGGGGSGGGGSGGGGSGGGGSGGGGSEVQLVESGGGLVKPGGSLRLSCAASGFTFSNYNMNWVRQAPGKGLEWVSSISSAGTHIYYADSVKGRFTISRDNAKNSLYLQMNSLRAEDTAVYYCARDPHSTGWYKDFDYWGQGTLVTVSSGGGGSGGGGSGGGGSGGGGSGGGGSGGGGSEVQLVESGGGLVQPGRSLRLSCAASGFTFDDYALHWVRQAPGKDLEWVSGISWNGGSYGYADSVKGRFTISRDNAKNSLYLQMNSLRAEDTALYYCVREKGPGLTGSTADYYGLDAWGQGTMVTVSSAAAHHHHHH
B6: TPP-983: CD137A-6GS-HSA2-6GS-PDA2-His (bispecific antibody)
chain: EVQLVESGGGLVQPGGSLRLSCAASGFTLSNYWMNWVRQAPGKGLEWVANINQDGSERYYVDSVKGRFTISRDNAKNSLYLQMNSLRAEDTAVYYCARGGEGYGVDHYGLDVSGQGTTVTVSSGGGGSGGGGSGGGGSGGGGSGGGGSGGGGSEVQLVESGGGLVKPGGSLRLSCAASGFTFSNYNMNWVRQAPGKGLEWVSSISSAGTHIYYADSVKGRFTISRDNAKNSLYLQMNSLRAEDTAVYYCARDPHSTGWYKDFDYWGQGTLVTVSSGGGGSGGGGSGGGGSGGGGSGGGGSGGGGSEVQLVESGGGVVRPGGSLRLSCAASGFTFDDYAMSWVRQAPGKGLEWVSGITWNAGSTGYADSVKGRFTISRDNAKNSLYLQMNSLRAEDTALYYCVRDKYSYAWSYDDFDIWGQGTMVTVSSAAAHHHHHH
B7: TPP-984: CD137D-6GS-HSA2-6GS-PDA-His (bispecific antibody)
chain: EVQLVESGGGVVQPGGSLRLSCAASGFTFSNYGMHWVRQAPGKGLEWVAVISNDGNTKTYADSVKGRFTISRDNSKNTLYLQMNSLRAEDTAVYYCAQDETTTVTASYYFDYWGQGTLVTVSSGGGGSGGGGSGGGGSGGGGSGGGGSGGGGSEVQLVESGGGLVKPGGSLRLSCAASGFTFSNYNMNWVRQAPGKGLEWVSSISSAGTHIYYADSVKGRFTISRDNAKNSLYLQMNSLRAEDTAVYYCARDPHSTGWYKDFDYWGQGTLVTVSSGGGGSGGGGSGGGGSGGGGSGGGGSGGGGSEVQLVESGGGLVQPGRSLRLSCAASGFTFDDYALHWVRQAPGKDLEWVSGISWNGGSYGYADSVKGRFTISRDNAKNSLYLQMNSLRAEDTALYYCVREKGPGLTGSTADYYGLDAWGQGTMVTVSSAAAHHHHHH
B8: TPP-985: CD137D-6GS-HSA2-2-6GS-PDA2-His (bispecific antibody)
chain: EVQLVESGGGVVQPGGSLRLSCAASGFTFSNYGMHWVRQAPGKGLEWVAVISNDGNTKTYADSVKGRFTISRDNSKNTLYLQMNSLRAEDTAVYYCAQDETTTVTASYYFDYWGQGTLVTVSSGGGGSGGGGSGGGGSGGGGSGGGGSGGGGSEVQLVESGGGLVKPGGSLRLSCAASGFTFSNYNMNWVRQAPGKGLEWVSSISSAGTHIYYADSVKGRFTISRDNAKNSLYLQMNSLRAEDTAVYYCARDPHSTGWYKDFDYWGQGTLVTVSSGGGGSGGGGSGGGGSGGGGSGGGGSGGGGSEVQLVESGGGVVRPGGSLRLSCAASGFTFDDYAMSWVRQAPGKGLEWVSGITWNAGSTGYADSVKGRFTISRDNAKNSLYLQMNSLRAEDTALYYCVRDKYSYAWSYDDFDIWGQGTMVTVSSAAAHHHHHH
B9: TPP-1008: PDA-6GS-HSA3-6GS-CD137D-His (bispecific antibody)
chain: EVQLVESGGGLVQPGRSLRLSCAASGFTFDDYALHWVRQAPGKDLEWVSGISWNGGSYGYADSVKGRFTISRDNAKNSLYLQMNSLRAEDTALYYCVREKGPGLTGSTADYYGLDAWGQGTMVTVSSGGGGSGGGGSGGGGSGGGGSGGGGSGGGGSEVQLLESGGGLVKPGGSLRLSCAASGFTVSSYTMNWVRQAPGKGLEWVSSISSSGRYIYYADSVKGRFTISRDNAKNSLYLQMNSLRAEDTAVYYCARDPRMVGNPHEFDIWGQGTMVTVSSGGGGSGGGGSGGGGSGGGGSGGGGSGGGGSEVQLVESGGGVVQPGGSLRLSCAASGFTFSNYGMHWVRQAPGKGLEWVAVISNDGNTKTYADSVKGRFTISRDNSKNTLYLQMNSLRAEDTAVYYCAQDETTTVTASYYFDYWGQGTLVTVSSAAAHHHHHH
B10: TPP-1009: PDA-6GS-hsa1-6GS-CD137D-His (bispecific antibody)
chain: EVQLVESGGGLVQPGRSLRLSCAASGFTFDDYALHWVRQAPGKDLEWVSGISWNGGSYGYADSVKGRFTISRDNAKNSLYLQMNSLRAEDTALYYCVREKGPGLTGSTADYYGLDAWGQGTMVTVSSGGGGSGGGGSGGGGSGGGGSGGGGSGGGGSEVQLVESGGGLVQPGRSLRLSCAASGFTFHHYAMHWVRQAPGKGLEWVSGISWNGNKITYADSVKGRFTISRDNAKNSLYLQMNSLRAEDTALYYCVRDSSLFIVGAPTFEHWGRGTLVTVSSGGGGSGGGGSGGGGSGGGGSGGGGSGGGGSEVQLVESGGGVVQPGGSLRLSCAASGFTFSNYGMHWVRQAPGKGLEWVAVISNDGNTKTYADSVKGRFTISRDNSKNTLYLQMNSLRAEDTAVYYCAQDETTTVTASYYFDYWGQGTLVTVSSAAAHHHHHH
B11: TPP-1011: PD138G7(G109D)-6GS-HSA3-6GS-CD137D-His (bispecific antibody)
chain: EVQLVESGGGVVRPGGSLRLSCAASGFTFDDYAMSWVRQAPGKGLEWVSGITWNGGSTGYADSVKDRFTISRDNAKNSLYLQMNSLRAEDTALYYCVRDKYSYAWSYDDFDIWGQGTMVTVSSGGGGSGGGGSGGGGSGGGGSGGGGSGGGGSEVQLLESGGGLVKPGGSLRLSCAASGFTVSSYTMNWVRQAPGKGLEWVSSISSSGRYIYYADSVKGRFTISRDNAKNSLYLQMNSLRAEDTAVYYCARDPRMVGNPHEFDIWGQGTMVTVSSGGGGSGGGGSGGGGSGGGGSGGGGSGGGGSEVQLVESGGGVVQPGGSLRLSCAASGFTFSNYGMHWVRQAPGKGLEWVAVISNDGNTKTYADSVKGRFTISRDNSKNTLYLQMNSLRAEDTAVYYCAQDETTTVTASYYFDYWGQGTLVTVSSAAAHHHHHH
B12: TPP-1012 PD138G7(G109D)-6GS-HSA1-6GS-CD137D-His (bispecific antibody)
chain: EVQLVESGGGVVRPGGSLRLSCAASGFTFDDYAMSWVRQAPGKGLEWVSGITWNGGSTGYADSVKDRFTISRDNAKNSLYLQMNSLRAEDTALYYCVRDKYSYAWSYDDFDIWGQGTMVTVSSGGGGSGGGGSGGGGSGGGGSGGGGSGGGGSEVQLVESGGGLVQPGRSLRLSCAASGFTFHHYAMHWVRQAPGKGLEWVSGISWNGNKITYADSVKGRFTISRDNAKNSLYLQMNSLRAEDTALYYCVRDSSLFIVGAPTFEHWGRGTLVTVSSGGGGSGGGGSGGGGSGGGGSGGGGSGGGGSEVQLVESGGGVVQPGGSLRLSCAASGFTFSNYGMHWVRQAPGKGLEWVAVISNDGNTKTYADSVKGRFTISRDNSKNTLYLQMNSLRAEDTAVYYCAQDETTTVTASYYFDYWGQGTLVTVSSAAAHHHHHH

target: human CD137 expressed on cells (Jurkat human CD137 NF-kB luciferase reporter cells; human CD8+ T cells) (human, UniProt Q07011 24-255); test: cell-based or functional assay

| Binder | Jurkat-CD137/CHO-PD-1 Reporter Assay EC50 [nM] |
| --- | --- |
| B1 | 11 |
| B2 | 10.9 |
| B3 | 7.18 |
| B4 | 11.5 |
| B5 | 0.57 |
| B6 | 0.556 |
| B7 | 11.8 |
| B8 | 21.7 |
| B9 | 3.61 |
| B10 | 34.7 |
| B11 | 4.11 |
| B12 | 5.29 |
